Test results published in PMC10786891, “Massively parallel profiling of RNA-targeting CRISPR-Cas13d”.

T1: EsCas13d, nuclease-dead (Eubacterium siraeum, UniProt B0MS50, R295A;H300A;R849A;H854A)
T1 sequence: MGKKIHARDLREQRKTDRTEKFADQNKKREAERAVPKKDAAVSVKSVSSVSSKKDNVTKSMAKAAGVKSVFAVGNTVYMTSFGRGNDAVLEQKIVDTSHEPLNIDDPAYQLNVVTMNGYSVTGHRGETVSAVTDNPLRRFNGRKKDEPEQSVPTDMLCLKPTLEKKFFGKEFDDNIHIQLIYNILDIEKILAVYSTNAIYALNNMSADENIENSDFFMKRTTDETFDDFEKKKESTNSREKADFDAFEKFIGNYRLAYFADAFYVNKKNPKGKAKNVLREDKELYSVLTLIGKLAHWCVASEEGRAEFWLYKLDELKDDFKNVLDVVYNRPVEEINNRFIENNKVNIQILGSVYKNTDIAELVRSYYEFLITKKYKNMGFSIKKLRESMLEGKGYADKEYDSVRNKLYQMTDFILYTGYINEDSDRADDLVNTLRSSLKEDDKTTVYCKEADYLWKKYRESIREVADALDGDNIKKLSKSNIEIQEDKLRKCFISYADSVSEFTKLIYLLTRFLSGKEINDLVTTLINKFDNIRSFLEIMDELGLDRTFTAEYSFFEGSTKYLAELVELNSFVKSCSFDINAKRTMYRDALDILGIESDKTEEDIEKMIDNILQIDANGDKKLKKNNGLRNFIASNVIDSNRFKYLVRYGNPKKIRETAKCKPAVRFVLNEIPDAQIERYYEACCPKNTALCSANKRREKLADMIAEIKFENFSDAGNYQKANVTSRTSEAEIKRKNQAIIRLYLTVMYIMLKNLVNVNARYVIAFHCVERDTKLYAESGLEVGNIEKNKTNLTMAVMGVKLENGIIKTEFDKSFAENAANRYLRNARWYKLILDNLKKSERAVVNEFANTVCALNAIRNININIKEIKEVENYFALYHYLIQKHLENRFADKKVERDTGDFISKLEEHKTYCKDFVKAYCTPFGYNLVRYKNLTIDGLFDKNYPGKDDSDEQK

B1: target 2 MT 5'PFS CAU 3'PFS CUA (mixed)
RNA 1: CACCCGUGCAAAAUUGCAGGGGUCUAAAACCUUCUCCAAAUUGUUUCAUCCU
RNA 2: GGGAAUGGAUCCACAUCUACGAAUUCCAUAGGAUGAAACAAUUUGGAGAAGCUAAGAUCGGAAGAGCACACGU
B2: target 2 MT 5'PFS GCG 3'PFS ACA (mixed)
RNA 1: CACCCGUGCAAAAUUGCAGGGGUCUAAAACCUUCUCCAAAUUGUUUCAUCCU
RNA 2: GGGAAUGGAUCCACAUCUACGAAUUCGCGAGGAUGAAACAAUUUGGAGAAGACAAGAUCGGAAGAGCACACGU
B3: target 2 MT 5'PFS GCG 3'PFS ACC (mixed)
RNA 1: CACCCGUGCAAAAUUGCAGGGGUCUAAAACCUUCUCCAAAUUGUUUCAUCCU
RNA 2: GGGAAUGGAUCCACAUCUACGAAUUCGCGAGGAUGAAACAAUUUGGAGAAGACCAGAUCGGAAGAGCACACGU
B4: target 2 MT 5'PFS GCG 3'PFS ACU (mixed)
RNA 1: CACCCGUGCAAAAUUGCAGGGGUCUAAAACCUUCUCCAAAUUGUUUCAUCCU
RNA 2: GGGAAUGGAUCCACAUCUACGAAUUCGCGAGGAUGAAACAAUUUGGAGAAGACUAGAUCGGAAGAGCACACGU
B5: target 2 MT 5'PFS GCG 3'PFS UAC (mixed)
RNA 1: CACCCGUGCAAAAUUGCAGGGGUCUAAAACCUUCUCCAAAUUGUUUCAUCCU
RNA 2: GGGAAUGGAUCCACAUCUACGAAUUCGCGAGGAUGAAACAAUUUGGAGAAGUACAGAUCGGAAGAGCACACGU
B6: target 2 MT 5'PFS CGC 3'PFS CGA (mixed)
RNA 1: CACCCGUGCAAAAUUGCAGGGGUCUAAAACCUUCUCCAAAUUGUUUCAUCCU
RNA 2: GGGAAUGGAUCCACAUCUACGAAUUCCGCAGGAUGAAACAAUUUGGAGAAGCGAAGAUCGGAAGAGCACACGU
B7: target 2 MT 5'PFS CGC 3'PFS CGG (mixed)
RNA 1: CACCCGUGCAAAAUUGCAGGGGUCUAAAACCUUCUCCAAAUUGUUUCAUCCU
RNA 2: GGGAAUGGAUCCACAUCUACGAAUUCCGCAGGAUGAAACAAUUUGGAGAAGCGGAGAUCGGAAGAGCACACGU
B8: target 2 MT 5'PFS ACC 3'PFS CUG (mixed)
RNA 1: CACCCGUGCAAAAUUGCAGGGGUCUAAAACCUUCUCCAAAUUGUUUCAUCCU
RNA 2: GGGAAUGGAUCCACAUCUACGAAUUCACCAGGAUGAAACAAUUUGGAGAAGCUGAGAUCGGAAGAGCACACGU
B9: target 2 MT 5'PFS UUG 3'PFS CUA (mixed)
RNA 1: CACCCGUGCAAAAUUGCAGGGGUCUAAAACCUUCUCCAAAUUGUUUCAUCCU
RNA 2: GGGAAUGGAUCCACAUCUACGAAUUCUUGAGGAUGAAACAAUUUGGAGAAGCUAAGAUCGGAAGAGCACACGU
B10: target 2 MT 5'PFS GCG 3'PFS UAA (mixed)
RNA 1: CACCCGUGCAAAAUUGCAGGGGUCUAAAACCUUCUCCAAAUUGUUUCAUCCU
RNA 2: GGGAAUGGAUCCACAUCUACGAAUUCGCGAGGAUGAAACAAUUUGGAGAAGUAAAGAUCGGAAGAGCACACGU
B11: target 2 MT 5'PFS CGC 3'PFS CGC (mixed)
RNA 1: CACCCGUGCAAAAUUGCAGGGGUCUAAAACCUUCUCCAAAUUGUUUCAUCCU
RNA 2: GGGAAUGGAUCCACAUCUACGAAUUCCGCAGGAUGAAACAAUUUGGAGAAGCGCAGAUCGGAAGAGCACACGU
B12: target 2 MT 5'PFS CGC 3'PFS UUC (mixed)
RNA 1: CACCCGUGCAAAAUUGCAGGGGUCUAAAACCUUCUCCAAAUUGUUUCAUCCU
RNA 2: GGGAAUGGAUCCACAUCUACGAAUUCCGCAGGAUGAAACAAUUUGGAGAAGUUCAGAUCGGAAGAGCACACGU
B13: target 1 insA 3' of 21,insG 3' of 9 (mixed)
RNA 1: CACCCGUGCAAAAAUGCAGGGGUCUAAAACUGAGCGGAUAACCUCUCUAUGG
RNA 2: GGGAAUGGAUCCACAUCUACGAAUUCGUACCAAUAGAGAGGUUAGUCCGCUCACCGAGAUCGGAAGAGCACACGU

Target: T1, EsCas13d, nuclease-dead
Test: crRNA (strand 1, pre-loaded); Mg2+; 40 mM Tris-HCl pH 7.5, 150 mM NaCl, 6 mM MgCl2, 1 mM DTT, 0.1% Tween-20, 0.2 mg/ml BSA; 25 C; 10 min per concentration, then washed
Conditions: tags: His6-TwinStrep-SUMO cleaved; N-terminal SNAP kept (SNAP-Surface 488); label: 3' end held by stalled T7 RNA polymerase

Binder	Kd [nM]
B1	4.1 ± 0.6
B2	16 ± 4
B3	30 ± 8
B4	13.8 ± 1.2
B5	13.1 ± 3.1
B6	6.7 ± 2.1
B7	7.3 ± 1.2
B8	9 ± 1.1
B9	14.9 ± 1.7
B10	9.6 ± 2.4
B11	4.1 ± 0.4
B12	12.1 ± 1.9
B13	46 ± 6
